The nature of the data set: soluble on expression in E. coli; label from the status in PepcDB or PDB records.
With “AHHHHHHGSISREQILEVLEKYDKEKITIGVIGSHSALDITDGAKEEGFPTLVVAQRGRHKTYEKYFKLRKTRDGLVKGFIDEVIVLEKFSQIIDIQEELRKRNVIFIPNRSFVVYTGIDRVENEFLVPMFGTRSLLRTEERSEEKSYYWLLEKAKLPYPEEVKPEEIDEVGLVIVKLPHAKKRLERGFFTAASYKEFKEKSEKLIRLGVITREDLEKARIERYIIGPVFNFDFFYSPIDEEIELLGIDWRFETSLDGHVRLPAAQQLTLPEWQFEPEYTVCGHASSTLRESLLEKVFDMAEKYVEATKKYYPPGIIGPFTLQTAVDKDLNFYIYDVAPRTGGGTNIHMAMGHPYGNSLWRKPMSTGRRIALEIKRAIELDELEKVVT”, the “soluble on expression in E. coli” value is recorded as “not soluble”.

“MNIPKVQFNPKVHKNIGIEIIELSDIYKRSDDDLENFIAKPHRIKFHNILYITQGRGTHFIDFNTYTTQAGSVVFINKNQVHAFDLINQPQGKLIIFTDEYLDTILTTIKTPLSAHNYLLTSYSPTFSLSKKIRNTCDVLLTEIEKEYQVKDPNLNFLNLIFSAVLTKLSSERTRSFEQYLSESRTEKFMTFIELLEVNYTNTRDAKIYADMLHMTYKSLNQICKLATKQTTKQLIDAYIILEAKRKLSIENIRVQQLADELGFDEVTNFVKYFKKNTLLTPSQFKKLNQG”: the “soluble on expression in E. coli” value is given as “not soluble”.

Take “MGLNDNKAGMEGLDKEKINKIIMEATKGSRFYGNELKKEKQVNQRIENMMQQKAQITSQQLRKAQLQVDRFAMELEQSRNLSNTIVHIDMDAFYAAVEMRDNPELKDKPIAVGSMSMLSTSNYHARRFGVRAAMPGFIAKRLCPQLIIVPPNFDKYRAVSKEVKEILADYDPNFMAMSLDEAYLNITKHLEERQNWPEDKRRYFIKMGSSVENDNPGKEVNKLSEHERSISPLLFEESPSDVQPPGDPFQVNFEEQNNPQILQNSVVFGTSAQEVVKEIRFRIEQKTTLTASAGIAPNTMLAKVCSDKNKPNGQYQILPNRQAVMDFIKDLPIRKVSGIGKVTEKMLKALGIITCTELYQQRALLSLLFSETSWHYFLHISLGLGSTHLTRDGERKSMSVERTFSEINKAEEQYSLCQELCSELAQDLQKERLKGRTVTIKLKNVNFEVKTRASTVSSVVSTAEEIFAIAKELLKTEIDADFPHPLRLRLMGVRISSFPNEEDRKHQQ”: the “soluble on expression in E. coli” value is given as “soluble”.

Regarding “MKFVSIISNSRMLFLFLLITAKSDRESCLYIFDENIRGVNITPTFVSTRAKGLFDLFIKKLRSRVALSFFLLKRKIKLEETIVYGADHLSHSLLFLKKCSFFLIEDGTENYHQKSYKRSWKNKLFSIPKFGMYKNVKRIYLTKRENVPDCIKSKVEYINIKDLWFKKTEEEKLEILYLLGIDMKKIQLLIGEPFILFTQPLSEDYILTENEKIELYKSIIDKYDASKLVIKPHPREKTDYSRIFPNVKVFDETYPSEVLDILEVKFSRVITLFSTAAFSYPKEKVDFYGTKIHPKLLAKFGNIEYE”, the “soluble on expression in E. coli” value was “not soluble”.

Take “MSLDYQGYLIDLDGTIYLGKEPIPAGKRFVERLQEKDLPFLFVTNNTTKSPETVAQRLANEFDIHVPASLVYTATLATIDYMKEANRGKKVFVIGEAGLIDLILEAGFEWDETNPDYVVVGLDTELSYEKVVLATLAIQKGALFIGTNPDKNIPTERGLLPGAGSVVTFVETATQTKPVYIGKPKAIIMERAIAHLGVEKEQVIMVGDNYETDIQSGIQNGIDSLLVTSGFTPKSAVPTLPTPPTYVVDSLDEWTFEGHHHHHH”: the “soluble on expression in E. coli” value is given as “soluble”.

As for “MSLYELTEDFKLRKITKYELDGIDEREDLLVIPPSSKAGPCGNACLFCYLLQNPPEMIYKVPRHDTLNDPDLENRIRYARKHYDLWIRVTDTSGNIKFDENRIKSLYDAGLDEIQISVHTTKKDVRARLMRNRQAGKLIDLLPLVAKHFRTIADIILTPGFNVEDIGEIIEDLDSMGVHEVRLFPVGVTRYNKFGVRPLTREELSYVKGIALEKDKELAIKVVIPPIFLALLGEFTTGLEPFDIEPDFPTYIFTGELAYQEMKRLFPRVNVIMVKNEFFGGNIGSAGLLTGRDILREVEKLPEVDLGLIILPELMFYGDMTLDGWRRQELFSKILIEKGYIVETALEPTEIPRVIEKVTLEGHHHHHH”, the “soluble on expression in E. coli” value is “soluble”.

Take “STLPRFDSVDLGNAPVPADAARRFEELAAKAGTGEAWETAEQIPVGTLFNEDVYKDMDWLDTYAGIPPFVHGPYATMYAFRPWTIRQFAGFSTAKESNAFYRRNLAAGQKGLSVAFDLPTHRGYDSDNPRVAGDVGMAGVAIDSIYDMRELFAGIPLDQMSVSMTMNGAVLPILALYVVTAEEQGVKPEQLAGTIQNDILKEFMVRNTYIYPPQPSMRIISEIFAYTSANMPKWNSISISGYHMQEAGATADIEMAYTLADGVDYIRAGESVGLNVDQFAPRLSFFWGIGMNFFMEVAKLRAARMLWAKLVHQFGPKNPKSMSLRTHSQTSGWSLTAQDVYNNVVRTCIEAMAATQGHTQSLHTNSLDEAIALPTDFSARIARNTQLFLQQESGTTRVIDPWSGSAYVEELTWDLARKAWGHIQEVEKVGGMAKAIEKGIPKMRIEEAAARTQARIDSGRQPLIGVNKYRLEHEPPLDVLKVDNSTVLAEQKAKLVKLRAERDPEKVKAALDKITWAAGNPDDKDPDRNLLKLCIDAGRAMATVGEMSDALEKVFGRYTAQIRTISGVYSKEVKNTPEVEEARELVEEFEQAEGRRPRILLAKMGQDGHDRGQKVIATAYADLGFDVDVGPLFQTPEETARQAVEADVHVVGVSSLAGGHLTLVPALRKELDKLGRPDILITVGGVIPEQDFDELRKDGAVEIYTPGTVIPESAISLVKKLRASLDA”: the “soluble on expression in E. coli” value was “soluble”.

For the sequence “MDYEIRQEQKRKIAGFHMVGPWEHTVKQGFEQLMTWVDRQRIVPVEWIAVYYDNPDVVPAEKLRCDTVVSVAENFILPDNSEGVIVTAIEGGEYATAVARVEDRDFAKPWERFFDVLEQDSAYQIASAPCFETYLNNGMEDGYWDIEMYIPVQRK”, the “soluble on expression in E. coli” value is recorded as “not soluble”.

In the case of “MGSDKIHHHHHHMIGEKIISFESIDSTNRFLKENYRFYPDGTVVVALEQTSGYGRSGRHWHSPKGGLWFSVLFKPRKPLELSFYTRVFSVAVVKTLENMKIHANIKWPNDVYINGRKLAGVLSEGIFEGAKPLAVVVGVGMNVNNEIPAELKTRAISLKEIMGKEISIVKLMESMLKNARVIFRKYSRKKEALTRIWKRYLLQKEGDLISLEGKKGKIVKINPDSLLIDFDGEIKKVYSLSPH”, the “soluble on expression in E. coli” value is given as “not soluble”.

For the sequence “MAQNNENALPDITKSITLEAPIQKVWETVSTSEGIAKWFMPNDFQLKEGQEFHLQSPFGPSPCKVLAVQAPTELSFEWDTEGWVVTFQLEDLGEKTGFTLIHSGWKEPNEVIGKANEKSSVVRGKMDGGWTGIVNERLRKAVEE”, the “soluble on expression in E. coli” value was “not soluble”.

Turning to “MGSDKIHHHHHHMSSDVRKALDPGTPYSRTLKQYSIDEKLAIISHAKNHGNRAAGREFNVAESSIREWRKNENKLIHNRDAAAARLNAQSSHSSGPARLNNMNNNNNNNHNHSKNNNIQYTQTVFPRRTPDDIVKHIQIAQITQLAMMKMDFTSLARIAPFLQAHQHQQQAQAKPDSISTASSVVGTPSSISSSSSTPPPSTSPVPTSSGSGRRKPRCPMKIVVAESNNPVNIEEIQENIDE”, the “soluble on expression in E. coli” value is given as “not soluble”.

With “MLQKDPCLDDILENSEKLENNSNKKNIDSIDTIKLSDIIEKMIEINSIVRIEKIFEEKIVSQNPVVNVVVNDGSARGLLSLWSEQISLLNELNEGDAILIENAHAPKKYKDRIHLALSKSGKISKIESDLPTIDELLKKSSAQRNDFSRKSISELKEGIGAELRGLIVAIHSKEPYFPVCDKCNKKMTLKKGYAVCKCGNKVDEEDENLKWLFLCTCTLDDGSGTIRVTLNNNTNYLDLEELKKIIIDDEEILDVLNNKLLGLDILTSGFTIYDEYLKDTAFRCNNWNKIDIMEEFNKKLKGLEHHHHHH”, the “soluble on expression in E. coli” value is reported as “soluble”.

In the case of “MGSDKIHHHHHHMEIEIATIGGYEEVGRQMTAVRAGDDIVIFDMGLNLSKVLVHDNVETEKMHSLDLIDMGAIPDDRVMSDLEGDVKAIVPTHGHLDHIGAISKLAHRYDAPIVGSPFTIELVKGEIESEQKFGVENDLVKMEAGGTMEIGDRCELEFVHVTHSIIDAINPVLHTPEGAVVYGLDKRMDHDPVLEDPIDMERFREIGREGEGVLCYIEDCTNAGKKGRTPSESTARRHLKDVLTSVADYDGGIVATTFSSHISRVSSLVEFAKEIGREPILLGRSMERYSGTAERMGRVNFPDDLGMFGHRKSVDRAFKRVMNEGKENFLPIVTGHQGEPQAMLTRMGRGETPYDIEDGDKIIFSASVIPEPTNKGQRYQSEQLLRMQGARIYDDIHVSGHLREEGHYQMLDALQPQHLIPAHQDMKGMAPYAKLAKSQGYKIGRDLHMTENGNTIQLVE”, the “soluble on expression in E. coli” value is reported as “not soluble”.

Turning to “MAGEEINEDYPVEIHEYLSAFENSIGAVDEMLKTMMSVSRNELLQKLDPLEQAKVDLVSAYTLNSMFWVYLATQGVNPKEHPVKQELERIRVYMNRVKEITDKKKAGKLDRGAASRFVKNALWEPKSKNASKVANKGKSKS”, the “soluble on expression in E. coli” value is “not soluble”.

Take “AHHHHHHGSPRWGRGRRRKMRMIEFIPYARHFYPALPRFGPPKPPIIMTYEEFEALRLVDYEGLTQEEAGKRMGVSRGTIWRALTSARKKVAQMLVEGRELIILPQGNEVIKSDEE”: the “soluble on expression in E. coli” value was “not soluble”.

Take “MQFTDGGKEVELRLRLKTGEILSPKDISVDADGTSLAVKEKRNGLLITLLETNHLFEKIMPSETIWYIDEDQLVVNMKKVDGELKWPDIVESWESLTAGMMQLLKGASIYIVGDSTEINQKVSRELAVGLGYSPLDSKELLESFSKQTIDSWILAEGPDSVAEAESSVLESLSSHVRTVVSTLGGKHGAAGRADQWRHLYSGFTVWVSQTEATDEESAKEEARRSKQEREIGYSNADVVVKLQGWDPTHAKSVAQASLSALKQLIISDKGLPGNK”: the “soluble on expression in E. coli” value is reported as “not soluble”.

As to “MSLQYQNQDNFPERIEYLVDKLNGPSEFARKTGVTLSTITRWRKGEADPSRSNLVKIAEVTGVSIEWLATGKIKEEKTTEEKPAGSLVSRAFERMQAMLEEGVSMIDSYSSINVSAGFGSFNEGITQPDGQEPYSDELLTSLGVKADNCAVFWANGNSMLPTINNYDQMLVDLSRKEIQGDRIYLVQNGESVWVKRVKMEWDGISLISDNKEEYPPISITGENAQNLQIIGQVVHIGHSLIEGHHHHHH”, the “soluble on expression in E. coli” value is on record as “soluble”.

Consider “MGHHHHHHSHMGRCYNNIVIDASIEAVWQQIGNFHDMSWAKGVITSLVKVGPASGTEVGAKRILNDAIHETLVSLDSSNYTFTYSIDDGPDAIAKSAVDNYLGMVNLSESSTGVLVEWSSSFTSDNEKAVTEFCDP”, for which the “soluble on expression in E. coli” value is reported as “not soluble”.

With “MKTTLIKVIAASVTALFLSMQVYASGHTAHVDEAVKHAEEAVAHGKEGHTDQLLEHAKESLTHAKAASEAGGNTHVGHGIKHLEDAIKHGEEGHVGVATKHAQEAIEHLRASEHKSH”, the “soluble on expression in E. coli” value is reported as “not soluble”.

For the sequence “MPGHRITLTGEKQTLLITLYAKALDSRLDDSILHDRFAEEAVRQIDFDFSRVALGKGNERALAMRSHYFDQACREFLGRHPEGQVLNLGCGLDSRIYRVDPPAELPWFDLDYPEVMDLRERLYPPRAGAYRALRHSVDDDGWLQGVPRERPALVLAEGLMPYLRESQVRRLVERLVDHLGSGELLFDGYGRLGIMLLRLYPPLRETGAQVHWSIDDPRELERWHPALRFIEEVTDYDPQDVAKLPQSSRLMLPIYNGFAFLRRMGRLIRYRWPRV”, the “soluble on expression in E. coli” value is on record as “not soluble”.

Consider “MKTEEMKFINESEFKKLKHYFEQKNTTSSLVLLVALTTGGRFSEIAKLKREDLDIKNNKIHLRGTKTETSDRIISIDTVTMKRIQSFIDSRPTNISGYIFTVDGKTITNAAVNKVLRKACANLNIKEITIHSLRHSFCSILIHHGFSILYISKHLGHSNPATTQSIYSHLLQETYEREDELEHHHHHH”, for which the “soluble on expression in E. coli” value is “not soluble”.

Values taken from the DeepSol protein solubility set.
